Molecular target: the molecule itself
Assay: near-TIRF microscopy

B1: Saccharomyces cerevisiae septin complex (Cdc3, Cdc10, Cdc11, Cdc12), polymerizable hetero-oligomer (complex)
chain 1: MSLKEEQVSIKQDPEQEERQHDQFNDVQIKQESQDHDGVDSQYTNGTQNDDSERFEAAESDVKVEPGLGMGITSSQSEKGQVLPDQPEIKFIRRQINGYVGFANLPKQWHRRSIKNGFSFNLLCVGPDGIGKTTLMKTLFNNDDIEANLVKDYEEELANDQEEEEGQGEGHENQSQEQRHKVKIKSYESVIEENGVKLNLNVIDTEGFGDFLNNDQKSWDPIIKEIDSRFDQYLDAENKINRHSINDKRIHACLYFIEPTGHYLKPLDLKFMQSVYEKCNLIPVIAKSDILTDEEILSFKKTIMNQLIQSNIELFKPPIYSNDDAENSHLSERLFSSLPYAVIGSNDIVENYSGNQVRGRSYPWGVIEVDNDNHSDFNLLKNLLIKQFMEELKERTSKILYENYRSSKLAKLGIKQDNSVFKEFDPISKQQEEKTLHEAKLAKLEIEMKTVFQQKVSEKEKKLQKSETELFARHKEMKEKLTKQLKALEDKKKQLELSINSASPNVNHSPVPTKKKGFLR
chain 2: MDPLSSVQPASYVGFDTITNQIEHRLLKKGFQFNIMVVGQSGLGKSTLINTLFASHLIDSATGDDISALPVTKTTEMKISTHTLVEDRVRLNINVIDTPGFGDFIDNSKAWEPIVKYIKEQHSQYLRKELTAQRERFITDTRVHAILYFLQPNGKELSRLDVEALKRLTEIANVIPVIGKSDTLTLDERTEFRELIQNEFEKYNFKIYPYDSEELTDEELELNRSVRSIIPFAVVGSENEIEINGETFRGRKTRWSAINVEDINQCDFVYLREFLIRTHLQDLIETTSYIHYEGFRARQLIALKENANSRSSAHMSSNAIQR
chain 3: MSGIIDASSALRKRKHLKRGITFTVMIVGQSGSGRSTFINTLCGQQVVDTSTTILLPTDTSTEIDLQLREETVELEDDEGVKIQLNIIDTPGFGDSLDNSPSFEIISDYIRHQYDEILLEESRVRRNPRFKDGRVHCCLYLINPTGHGLKEIDVEFIRQLGSLVNIIPVISKSDSLTRDELKLNKKLIMEDIDRWNLPIYNFPFDEDEISDEDYETNMYLRTLLPFAIIGSNEVYEMGGDVGTIRGRKYPWGILDVEDSSISDFVILRNALLISHLHDLKNYTHEILYERYRTEALSGESVAAESIRPNLTKLNGSSSSSTTTRRNTNPFKQSNNINNDVLNPASDMHGQSTGENNETYMTREEQIRLEEERLKAFEERVQQELLLKRQELLQREKELREIEARLEKEAKIKQEE
chain 4: MSAATATAAPVPPPVGISNLPNQRYKIVNEEGGTFTVMLCGESGLGKTTFINTLFQTVLKRADGQQHRQEPIRKTVEIDITRALLEEKHFELRVNVIDTPGFGDNVNNNKAWQPLVDFIDDQHDSYMRQEQQPYRTKKFDLRVHAVLYFIRPTGHGLKPIDIETMKRLSTRANLIPVIAKADTLTAQELQQFKSRIRQVIEAQEIRIFTPPLDADSKEDAKSGSNPDSAAVEHARQLIEAMPFAIVGSEKKFDNGQGTQVVARKYPWGLVEIENDSHCDFRKLRALLLRTYLLDLISTTQEMHYETYRRLRLEGHENTGEGNEDFTLPAIAPARKLSHNPRYKEEENALKKYFTDQVKAEEQRFRQWEQNIVNERIRLNGDLEEIQGKVKKLEEQVKSLQVKKSHLK
Q: Does B1 bind?
A: Result: binds

From publication doi:10.1101/2022.05.16.492121 (bioRxiv, 2022)
